The target in test [1] is hemagglutinin of H3N2 Hong Kong/68 (influenza A virus H3N2). Kind of test: Biolayer Interferometry (ForteBio Octet), kinetic analysis, apparent affinity. (In general: BLI is a label-free optical method that tracks binding on a fibre tip over time.)
The target in test [2] is hemagglutinin H3 A/Perth/16/2009 (influenza A virus H3). The test is described as above.

Take C05 CDR1 variant E27d-A (antibody): the Kd in test [1] amounted to 540 nM; in test [2], 28 nM.
In the same order, the values of C05 CDR1 variant del(FGEST) (antibody) are 690 nM and 1300 nM.
Regarding C05 CDR1 variant Y31L (antibody), the results for the Kd in test [1] and in test [2] were 1400 nM and 560 nM, respectively.
For C05 CDR1 variant Y31F (antibody), in that order: 420 nM and 6.8 nM.
Consider C05 CDR1 variant G27c-A (antibody), for which the Kd was 450 nM in test [1] and 33 nM in test [2].
Turning to C05 CDR1 variant Y31A (antibody), the Kd was 640 nM in test [1] and 550 nM in test [2].
In the same order, the values of C05 CDR1 variant F27b-A (antibody) are 610 nM and 460 nM.

For the origin of these results see patent US20140199682A1.
